Source: article PMC3967975 (Molecular Biology of the Cell, 2014)
Where two headings read alike, the source gives them in different places.

B1: His::emerin 1–125 (Ce-emerin residues 1–125, nucleoplasmic domain only) (domain or fragment, C. elegans, UniProt O01971 1-125, looked up)
chain: MDVSQLTDAELRDSLKSHGVSVGPIVATTRKLYEKKLIKLSDGSINNQSNLNDSQFNEDSLIISSSPKKSPPQRVFQNVSAATAAATTSPESDSDDCEESMRYLTEEEMAADRASARQAQSNKGG
B2: MBP::BAF-1 (wild-type C. elegans barrier to autointegration factor 1 fused to maltose-binding protein) (natural protein, UniProt Q03565 1-89, looked up)
chain: MSTSVKHREFVGEPMGDKEVTCIAGIGPTYGTKLTDAGFDKAYVLFGQYLLLKKDEDLFIEWLKETAGVTANHAKTAFNCLNEWADQFM
B3: MBP::BAF-1 S4A (natural protein, C. elegans, UniProt Q03565 1-89, looked up)
chain: MSTAVKHREFVGEPMGDKEVTCIAGIGPTYGTKLTDAGFDKAYVLFGQYLLLKKDEDLFIEWLKETAGVTANHAKTAFNCLNEWADQFM
B4: MBP::BAF-1 F46E (natural protein, C. elegans, UniProt Q03565 1-89, looked up)
chain: MSTSVKHREFVGEPMGDKEVTCIAGIGPTYGTKLTDAGFDKAYVLEGQYLLLKKDEDLFIEWLKETAGVTANHAKTAFNCLNEWADQFM
B5: MBP::BAF-1 K6A (natural protein, C. elegans, UniProt Q03565 1-89, looked up)
chain: MSTSVAHREFVGEPMGDKEVTCIAGIGPTYGTKLTDAGFDKAYVLFGQYLLLKKDEDLFIEWLKETAGVTANHAKTAFNCLNEWADQFM
B6: MBP::BAF-1 S4E (natural protein, C. elegans, UniProt Q03565 1-89, looked up)
chain: MSTEVKHREFVGEPMGDKEVTCIAGIGPTYGTKLTDAGFDKAYVLFGQYLLLKKDEDLFIEWLKETAGVTANHAKTAFNCLNEWADQFM
B7: Ce-lamin tail domain (residues 388–566), His-tagged (domain or fragment, C. elegans, UniProt Q21443 388-566, looked up)
chain: NLTQEAPQNTSVHHVSFSSGGASAQRGVKRRRVVDVNGEDQDIDYLNRRSKLNKETVGPVGIDEVDEEGKWVRVANNSEEEQSIGGYKLVVKAGNKEASFQFSSRMKLAPHASATVWSADAGAVHHPPEVYVMKKQQWPIGDNPSARLEDSEGDTVSSITVEFSESSDPSDPADRCSIM
B8: His::lamin R55H (full-length Ce-lamin bearing the R55H mutation) (natural protein, C. elegans, UniProt Q21443 1-566, looked up)
chain: MSSRKGTRSSRIVTLERSANSSLSNNGGGDDSFGSTLLETSRLQEKDHLTSLNSHLATYIDKVRQLEQENNRLQVQIRDIEVVEKKEKSNLADRFEAEKARLRRALDSAQDELAKYRIEYDAAKVEVKKLKPQVEKLERELAGAEEQALHAQSIADQSQAKQKTLQARNDKLVVENDDLKKQNITLRDTVEGLKKAVEDETLLRTAANNKIKALEEDLAFALQQHKGELEEVRHKRQVDMTTYAKQINDEYQSKLQDQIEEMRAQFKNNLHQNKTAFEDAYKNKLNAARERQEEAVSEAIHLRARVRDLETSSSGNASLIERLRSELDTLKRSFQEKLDDKDARIAELNQEIERMMSEFHDLLDVKIQLDAELKTYQALLEGEEERLNLTQEAPQNTSVHHVSFSSGGASAQRGVKRRRVVDVNGEDQDIDYLNRRSKLNKETVGPVGIDEVDEEGKWVRVANNSEEEQSIGGYKLVVKAGNKEASFQFSSRMKLAPHASATVWSADAGAVHHPPEVYVMKKQQWPIGDNPSARLEDSEGDTVSSITVEFSESSDPSDPADRCSIM

Experiments:
Assay in all cases: SPR
[1] = molecular target: B8
SPR [2] = molecular target: the molecule itself
[3] = molecular target: B8; remark: listed apart in the source
[4] = molecular target: B1
SPR [5] = molecular target: the molecule itself; remark: listed apart in the source

Binder	Kd [1]	Kd (SPR [2])	Kd [3]	Kd [4]	Kd (SPR [5])
B1	4 to 5 nM	14 nM			
B2			84 nM	57 nM	
B3			281 nM	20 nM	
B4			623 nM	5.6 nM	
B5			198 nM	31 nM	
B6			32100 nM	~57 nM	
B7			0.56 nM		
B8					3.7 nM
